Numbering of substitutions follows the chain as printed. Names may count otherwise. “And” between values parts separate entries of the source, which are not always exact repeats. Equal values may be shown once. Read-outs that look alike come from different tables or passages of the source.

The term EC50 denotes the concentration giving half of the maximal effect. High values mean a need for much substance, low ones an effect from little substance.

The target of assay [1] is T1, commercial CD3ε (Creative Biomart, Catalog Number CD3E-2194H) (human, UniProt P07766).
T1 construct: commercial recombinant protein; also called commercial CD3E
Description: binding affinity on commercial CD3ε (Creative Biomart CD3E-2194H); method not stated in the legend.

For assay [2], the target named is T1, commercial CD3ε (Creative Biomart, …). The description is as above. The source holds these as a separate data set.
For assay [3], the target named is T2, human CD3 on T cells (human, UniProt P07766 22-207).
T2 construct: whole, on cells; On cells CD3ε stands in the CD3/TCR complex; also called CD3 antigen; CD3ε
Description: FACS on Jurkat cells (CD3), anti-huIgG-PE; number printed beside the curve without a quantity name, taken as EC50. Here is the method: (§1) Binding affinities for the each of the CD3/CD20 TDBs were tested by Biacore or FACS analysis, as described above for the anti-CD3 antibodies. Briefly, for Biacore binding assays, human CD3εγ was immobilized on Biacore Series S CM5 sensor chip using the amine coupling kit from Biacore and CD3/CD20 TDBs or Fab variants thereof were in the flow through. For FACS binding assays, either Bjab cells (for B cell antigens) or Jurkat cells (for CD3 antigen) were incubated with various concentrations of TDB antibodies at 4° C. for 30 minutes, then cells were washed and incubated with 2nd antibody (anti-huIgG-PE; BD Bioscience) for another 15 minutes, before cells were washed again and ready for FACS analysis.

Assay [4] has as its target T2, human CD3 on T cells. Described as above. Here is the method: as §1
This is another data set of the same source.

Assay [5] deals with T2, human CD3 on T cells. The description is as above. The protocol: as §1
The source holds these as a separate data set.

In assay [6] the target is T1, commercial CD3ε (Creative Biomart, …). Description: binding affinity on commercial CD3ε (Creative Biomart CD3E-2194H); method not stated in the legend. The source holds these as a separate data set.
Assay [7] addresses T3, single chain human CD3ε-26mer-CD3γ (CD3εγ) (human).
T3 construct: also called human CD3εγ
T3 chain: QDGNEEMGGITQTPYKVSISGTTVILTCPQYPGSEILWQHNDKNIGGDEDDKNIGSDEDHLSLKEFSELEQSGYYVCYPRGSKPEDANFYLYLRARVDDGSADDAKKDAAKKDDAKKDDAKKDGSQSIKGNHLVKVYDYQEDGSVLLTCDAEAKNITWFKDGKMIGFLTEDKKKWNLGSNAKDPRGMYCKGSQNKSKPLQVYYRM
Briefly: Biacore, monovalent KD of the CD3 arm; CD3 antigen not named on the sheet (reactivity hu, cyno). In general terms: SPR reads the build-up and loss of mass on a sensor chip optically.

The target in assay [8] is T2, human CD3 on T cells. Briefly: Scatchard; table 'Monovalent Binding Affinity'; the partner arm is not given, the TDB is taken from legend paragraph 149, p-1410 and Figure 16; cells not named.
For assay [9], the target named is T2, human CD3 on T cells. Description: Scatchard; table headed 'Bivalent Binding Affinity', though its footnote reads 'monovalent binding Kd measured by scatchard'; cells not named.
In another assay the target is T4, cyCD3εγ (cynomolgus monkey).
T4 chain 1: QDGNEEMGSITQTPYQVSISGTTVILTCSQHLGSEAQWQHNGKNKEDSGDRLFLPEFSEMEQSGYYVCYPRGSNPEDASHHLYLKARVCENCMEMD
T4 chain 2: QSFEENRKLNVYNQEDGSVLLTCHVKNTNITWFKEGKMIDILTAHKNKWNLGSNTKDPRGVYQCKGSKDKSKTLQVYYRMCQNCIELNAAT
Description: monovalent binding affinity, method not stated on the sheet.

B1: murine 41D9 (antibody, V domains shown)
VH: QIQLVQSGPELKKPGETVKISCKASGYTFTNYGMNWVKQAPGKGLKWMGWINTNTGKPTYAEEFKGRFVFSLETSASTTYLQINNLKNEDTATYFCARRGDYRYAWFLYWGQGTLVTVSA
VL: QAVVTQESALTTSPGGTVILTCRSSTGAVTTSNYANWVQEKPDHLFTGLIGGTSNRAPGVPVRFSGSLIGDKAALTITGAQTEDDAMYFCALWYSTHFVFGGGTKVTV
notes: also called 41D9a
Take B1: the Kd in assay [1] amounted to 1.1 nM.

B2: humanized 38E4 variant: VH1 graft + R71A / K4 graft + P43S (antibody, V domains shown)
VH: EVQLVQSGAEVKKPGASVKVSCKASGFTFTSYYIHWVRQAPGQGLEWIGWIYPENDNTKYNEKFKDRVTITADTSTSTAYLELSSLRSEDTAVYYCARDGYSRYYFDYWGQGTLVTVSS
VL: DIVMTQSPDSLAVSLGERATINCKSSQSLLNSRTRKNYLAWYQQKPGQSPKLLIYWTSTRKSGVPDRFSGSGSGTDFTLTISSLQAEDVAVYYCKQSFILRTFGQGTKVEIK
In the case of B2, the Kd in [2] was found to be 0.5 nM.

B3: KH CD20 2H7v16/hu40G5c (bispecific antibody, V domains shown)
VH 1: EVQLVESGGGLVQPGGSLRLSCAASGYTFTSYNMHWVRQAPGKGLEWVGAIYPGNGDTSYNQKFKGRFTISVDKSKNTLYLQMNSLRAEDTAVYYCARVVYYSNSYWYFDVWGQGTLVTVSS
VL 1: DIQMTQSPSSLSASVGDRVTITCRASSSVSYMHWYQQKPGKAPKPLIYAPSNLASGVPSRFSGSGSGTDFTLTISSLQPEDFATYYCQQWSFNPPTFGQGTKVEIK
VH 2: B2 VH with F27Y, S31N, E54G, N55D, D56G, D66G, V68A, I70L, G100S, R103N
VL 2: B2 VL with S49P, T57A, K61E, K95T
modifications: Knob-into-hole full-length IgG; constant regions are not in the letters.
notes: also called KH CD20 2H7v16/40G5c; CD20KH (2H7v16/40G5c)
For the molecule B3, the EC50 with human CD3 on T cells [3] was 1.21 µg/mL; with human CD3 on T cells [4], 1.6 µg/mL and 11 nM; with human CD3 on T cells [5], 1.25 µg/mL and 8.3 nM.

B4: humanized 40G5c variant: VH1 graft + V67A + I69L + R71A / K4 graft (antibody, V domains shown)
VH: B2 VH with F27Y, S31N, E54G, N55D, D56G, D66G, V68A, I70L, G100S, R103N
VL: B2 VL with S49P, T57A, K61E, K95T
In the case of B4, the Kd in [6] worked out at 24 nM.

B5: humanized 40G5c variant: VH1 graft + V67A + R71A / K4 graft (antibody, V domains shown)
VH: B2 VH with F27Y, S31N, E54G, N55D, D56G, D66G, V68A, G100S, R103N
VL: B2 VL with S49P, T57A, K61E, K95T
In assay [6], B5 returned a Kd of 37 nM.

B6: humanized 40G5c variant: VH1 graft + I69L + R71A / K4 graft (antibody, V domains shown)
VH: B2 VH with F27Y, S31N, E54G, N55D, D56G, D66G, I70L, G100S, R103N
VL: B2 VL with S49P, T57A, K61E, K95T
For B6, the Kd in assay [6] turned out to be 36 nM.

B7: murine 38E4 (antibody, V domains shown)
VH: QVQLQQSGPELVKPGASVTISCTASGFTFTSYYIHWVRQRPGQGLEWIGWIYPENDNTKYNEKFKDKATLTADTSSSTAYMQLSSLTSEDSAVYYCARDGYSRYYFDYWGQGTTLTVSS
VL: DIVMTQSPSFLAVSAGEKVTMSCKSSQSLLNSRTRKNYLAWYQQRPGQSPKLLIYWTSTRKSGVPDRFTGSGSGTDFTLTISSVQAEDLAIYYCKQSFILRTFGGGTKLEIK
The molecule B7 yielded a Kd in [2] of 0.75 nM.

B8: murine 38E4 (antibody, V domains shown)
VH: B7 VH
VL: B7 VL
notes: KD is printed as monovalent
B8: the Kd in [7] worked out at 0.75 nM.

B9: K&H 2H7v16/hu UCHT1vM1 (bispecific antibody, V domains shown)
VH 1: B3 VH 1
VL 1: B3 VL 1
VH 2: EVQLVESGGGLVQPGGSLRLSCAASGYSFTGYTMNWVRQAPGKGLEWVALINPYKGVSTYADSVKGRFTISVDKSKNTAYLQMNSLRAEDTAVYYCARSGYYGDSDWYFDVWGQGTLVTVSS
VL 2: DIQMTQSPSSLSASVGDRVTITCRASQDIRNYLNWYQQKPGKAPKLLIYYTSRLESGVPSRFSGSGSGTDYTLTISSLQPEDFATYYCQQGNTLPWTFGQGTKVEIK
modifications: Knob-into-hole full-length IgG; constant regions are not in the letters.
notes: also called CD3/CD20 TDB 2H7v16/UCHT1vM1
For B9, the Kd with human CD3 on T cells [8] stood at 318 nM; in the assay with human CD3 on T cells [9] it was 40 nM.

B10: CD20KH (2H7v16/21A9) (bispecific antibody, V domains shown)
VH 1: B3 VH 1
VL 1: B3 VL 1
VH 2: EVQLVESGGGVVQPGGSLKLSCAASGFTFSGSAMHWVRQASEKGLEWVGRIRSRANSYATAYAASVKDRFTISRDNSKNTAYLQMNSLKTEDTAVYYCIRDTMVRGIDYWGQGTLVTVSS
VL 2: not shown
modifications: Knob-into-hole full-length IgG; constant regions are not in the letters.
notes: also called CD3/CD20 TDB 2H7v16/21A9
For B10, in the assay with human CD3 on T cells [4], the half-maximal effective concentration (EC50) was 1.6 µg/mL and 11 nM.

B11: K&H 2H7v16/hu UCHT1v1 (bispecific antibody, V domains shown)
VH 1: B3 VH 1
VL 1: B3 VL 1
VH 2: B9 VH 2 with S58T
VL 2: B9 VL 2
modifications: Knob-into-hole full-length IgG; constant regions are not in the letters.
notes: also called CD3/CD20 TDB 2H7v16/UCHT1v1
Regarding B11, the Kd with human CD3 on T cells [9] amounted to 300 nM.

B12: SP34v52 Fab (Fab, V domains shown)
VH: EVQLVESGGGLVQPGGSLRLSCAASGFTFNTYAMNWVRQAPGKGLEWVARIRSKYNNYATYYADSVKDRFTISRDDSKNTLYLQMNSLRAEDTAVYYCVRHGNFGNSYVSWFAYWGQGTLVTVSS
VL: EAVVTQEPSLTVSPGGTVTLTCRSSTGAVTTSNYANWVQQKPGQAPRGLIGGTNKRAPWTPARFSGSLLGGKAALTLSGAQPEDEAEYYCALWYSNLWVFGGGTKLTVL
Molecule B12 registered a Kd in the assay with cyCD3εγ of 12 nM.

B13: murine SP34 (antibody, V domains shown)
VH: B12 VH with G15K, R19K, K78Q, N79S, T80I, S87N, R89K, A90T, V95M
VL: QAVVTQESALTTSPGETVTLTCRSSTGAVTTSNYANWVQEKPDHLFTGLIGGTNKRAPGVPARFSGSLIGDKAALTITGAQTEDEAIYFCALWYSNLWVFGGGTKLTVL
notes: KD is printed as monovalent
With B13, the Kd in assay [7] came to 1.9 nM.

B14: KH CD20 2H7v16/SP34v52 (bispecific antibody, V domains shown)
VH 1: B3 VH 1
VL 1: B3 VL 1
VH 2: B12 VH
VL 2: B12 VL
modifications: Knob-into-hole full-length IgG; constant regions are not in the letters.
notes: full-length knob-into-hole human IgG1 TDB; also called CD3/CD20 TDB 2H7v16/SP34v52
For B14, the half-maximal effective concentration (EC50) is 1.11 µg/mL with human CD3 on T cells [3]; 0.6 µg/mL and 4 nM in the assay with human CD3 on T cells [5].
